First the molecules themselves.
B1: Protein PTHB1 (Homo sapiens), Q3SYG4 (parent)
chain: MSLFKARDWWSTILGDKEEFDQGCLCLANVDNSGNGQDKIIVGSFMGYLRIFSPHPAKTGDGAQAEDLLLEVDLRDPVLQVEVGKFVSGTEMLHLAVLHSRKLCVYSVSGTLGNVEHGNQCQMKLMYEHNLQRTACNMTYGSFGGVKGRDLICIQSMDGMLMVFEQESYAFGRFLPGFLLPGPLAYSSRTDSFLTVSSCQQVESYKYQVLAFATDADKRQETEQQKLGSGKRLVVDWTLNIGEQALDICIVSFNQSASSVFVLGERNFFCLKDNGQIRFMKKLDWSPSCFLPYCSVSEGTINTLIGNHNNMLHIYQDVTLKWATQLPHIPVAVRVGCLHDLKGVIVTLSDDGHLQCSYLGTDPSLFQAPNVQSRELNYDELDVEMKELQKIIKDVNKSQGVWPMTEREDDLNVSVVVSPNFDSVSQATDVEVGTDLVPSVTVKVTLQNRVILQKAKLSVYVQPPLELTCDQFTFEFMTPDLTRTVSFSVYLKRSYTPSELEGNAVVSYSRPTDRNPDGIPRVIQCKFRLPLKLICLPGQPSKTASHKITIDTNKSPVSLLSLFPGFASQSDDDQVNVMGFHFLGGARITVLASKTSQRYRIQSEQFEDLWLITNELILRLQEYFEKQGVKDFACSFSGSIPLQEYFELIDHHFELRINGEKLEELLSERAVQFRAIQRRLLARFKDKTPAPLQHLDTLLDGTYKQVIALADAVEENQGNLFQSFTRLKSATHLVILLIALWQKLSADQVAILEAAFLPLQEDTQELGWEETVDAAISHLLKTCLSKSSKEQALNLNSQLNIPKDTSQLKKHITLLCDRLSKGGRLCLSTDAAAPQTMVMPGGCTTIPESDLEERSVEQDSTELFTNHRHLTAETPRPEVSPLQGVSE
partner: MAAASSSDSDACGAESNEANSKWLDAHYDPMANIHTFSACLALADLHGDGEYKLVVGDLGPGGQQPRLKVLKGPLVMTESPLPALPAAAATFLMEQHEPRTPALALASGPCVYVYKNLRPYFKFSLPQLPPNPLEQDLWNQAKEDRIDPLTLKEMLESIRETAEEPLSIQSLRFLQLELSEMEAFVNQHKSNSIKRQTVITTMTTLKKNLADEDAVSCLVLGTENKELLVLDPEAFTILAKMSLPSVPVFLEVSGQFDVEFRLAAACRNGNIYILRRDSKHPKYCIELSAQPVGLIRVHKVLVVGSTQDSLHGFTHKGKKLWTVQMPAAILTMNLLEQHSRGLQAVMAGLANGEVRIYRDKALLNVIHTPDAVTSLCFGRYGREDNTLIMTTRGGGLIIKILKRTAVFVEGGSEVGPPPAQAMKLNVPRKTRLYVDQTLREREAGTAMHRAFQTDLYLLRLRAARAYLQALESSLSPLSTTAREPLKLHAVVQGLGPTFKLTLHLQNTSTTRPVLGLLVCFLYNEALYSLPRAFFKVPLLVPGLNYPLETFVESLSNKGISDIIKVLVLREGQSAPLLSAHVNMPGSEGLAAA

In the test the parent is B1. The note with it: with bbs1_human BBS1, Q8NFJ9.
Take S596A: the “effect of a mutation on the interaction” value is given as “with no effect”.
With S596E the entry was “with no effect”; with S596K, “with no effect”.
Next, E604K: “with no effect”.
Take E604A: the “effect of a mutation on the interaction” value was “with no effect”.
With E604V the entry was “disrupting interaction strength”.
Next, Q569E: “with no effect”; Q569K: “with no effect”.
As to Q569A, the “effect of a mutation on the interaction” value was “with no effect”.
Next, Q574E: “with no effect”; Q574A: “with no effect”; Q574K: “with no effect”.
With N614A, the “effect of a mutation on the interaction” value is “with no effect”.
Next, N614E: “with no effect”; N614K: “with no effect”; T613E: “with no effect”.
T613A: the “effect of a mutation on the interaction” value is recorded as “with no effect”.
Next, T613K: “with no effect”; T613I: “disrupting interaction strength”.
With A586K the entry was “with no effect”; with A586E, “with no effect”.
Next, E615K: “with no effect”.
For E615A, the “effect of a mutation on the interaction” value was “with no effect”.
Consider F580E, for which the “effect of a mutation on the interaction” value was “with no effect”.
For F580A, the “effect of a mutation on the interaction” value is listed as “disrupting interaction strength”.
With F580K the entry was “with no effect”; with H581A, “with no effect”; with H581E, “with no effect”.
With H581K the entry was “with no effect”; with I612E, “with no effect”.
Next, I612K: “with no effect”; I612A: “with no effect”; A592E: “with no effect”.
With A592K, the “effect of a mutation on the interaction” value is “with no effect”.
Next, A592V: “disrupting interaction strength”; V590E: “with no effect”; V590A: “with no effect”.
Next, V590K: “with no effect”; T595A: “with no effect”.
T595K: the “effect of a mutation on the interaction” value was “with no effect”.
With T595E the entry was “with no effect”.
With S570E the entry was “with no effect”; with S570L, “disrupting interaction strength”.
Next, S570K: “with no effect”.
On to S570A, for which the “effect of a mutation on the interaction” value was “with no effect”.
With S593K the entry was “with no effect”.
Next, S593A: “with no effect”; S593E: “with no effect”.
With G579A the entry was “with no effect”; with G579K, “with no effect”.
Turning to G579E, the “effect of a mutation on the interaction” value is reported as “with no effect”.
Next, L591A: “with no effect”.
With L591E the entry was “with no effect”; with L591K, “with no effect”.
With G585K the entry was “with no effect”.
Consider G585E, for which the “effect of a mutation on the interaction” value is given as “with no effect”.
With G585R the entry was “disrupting interaction strength”; with G585A, “with no effect”; with R587K, “with no effect”.
With R587T the entry was “disrupting interaction strength”.
Regarding R587A, the “effect of a mutation on the interaction” value is given as “with no effect”.
On to R587E, for which the “effect of a mutation on the interaction” value is reported as “with no effect”.
Regarding L616A, the “effect of a mutation on the interaction” value was “with no effect”.
Next, L616K: “with no effect”; L616E: “with no effect”; L616F: “disrupting interaction strength”.
Next, L616P: “disrupting interaction strength”.
Next, Q605K: “with no effect”; Q605A: “with no effect”; Q605E: “with no effect”.
Consider Q597R, for which the “effect of a mutation on the interaction” value is listed as “disrupting interaction strength”.
In the case of Q597E, the “effect of a mutation on the interaction” value is “with no effect”.
With Q597K the entry was “with no effect”; with Q597A, “with no effect”; with G565A, “with no effect”.
G565P: the “effect of a mutation on the interaction” value is reported as “disrupting interaction strength”.
Next, G565S: “disrupting interaction strength”.
Next, G565E: “with no effect”; G565K: “with no effect”; M578K: “with no effect”.
With M578A the entry was “with no effect”.
Regarding M578E, the “effect of a mutation on the interaction” value is on record as “with no effect”.
With L583A, the “effect of a mutation on the interaction” value is reported as “with no effect”.
With L583K, the “effect of a mutation on the interaction” value is reported as “with no effect”.
Next, L583E: “with no effect”.
Next, K594E: “with no effect”; K594A: “with no effect”.
Regarding D573K, the “effect of a mutation on the interaction” value is “with no effect”.
On to D573A, for which the “effect of a mutation on the interaction” value is given as “with no effect”.

For the origin of these results see IntAct's records for PubMed 29039417.
